In doi:10.1101/2019.12.15.876185:

System: CTCF (human)
Test: EMSA

Substance: Cacna1b e37a DNA probe (139 bp)
- Kd: 0.0461 ng
